For assay [1], the target named is hFcγRIIIa-158V-streptavidin-His (human, UniProt P08637 17-208). The assay can be described thus: BLI. On the technique in general: In BLI a coated tip is dipped into the sample, and binding shifts an interference pattern.
Assay [2] deals with hFcγRIIIa-158F-streptavidin-His (human, UniProt P08637 17-208). The assay can be described thus: BLI.

Substitutions are numbered along the chain they refer to.

Chain of hFcγRIIIa-158F-streptavidin-His (P08637 17-208): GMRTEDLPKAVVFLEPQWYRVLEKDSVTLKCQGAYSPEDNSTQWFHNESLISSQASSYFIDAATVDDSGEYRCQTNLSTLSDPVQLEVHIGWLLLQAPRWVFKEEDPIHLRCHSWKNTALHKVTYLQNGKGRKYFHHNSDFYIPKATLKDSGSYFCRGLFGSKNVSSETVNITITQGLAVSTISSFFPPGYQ
Chain of hFcγRIIIa-158V-streptavidin-His (P08637 17-208 F176V): as the sequence (P08637 17-208) above, with F160V counted along it

B1: Trastuzumab-MFc2 (antibody)
Fc: DKTHTCPPCPAPELPGGPSVFLFPPKPKDTLMISRTPEITCVVVDVSHEDPEVKFNWYVDGVEVHNAKTKPREEQYNSTYRVVSVLTVLHRDWLNGKEYKCKVSNKALPAPEEKTISKAKGQPREPQVYTLPPSRDELTKNQVSLTCLVKGFYPSDIVVEWESNGQPENNYKTTPPVLDSDGSFFLYSKLTVDKSRWQQGNVFSCSVLHEALHNHYTQKSLSLSPGK
As for B1, the dissociation constant Kd (as a rule, the constant that tells how readily two partners part at equilibrium) in assay [1] turned out to be 63.9 nM; in assay [2], 56.8 nM.

B2: Trastuzumab-MFc5 (antibody)
Fc: B1 Fc with P15L, S19D, K28M, I39V, H48L, L89E, R91M, A110V, V158A
Regarding B2, the Kd was 85 nM in assay [1] and 75.6 nM in assay [2].

B3: Trastuzumab-MFc3 (antibody)
Fc: B1 Fc with P15L, S19D, I39V, H48L, A110V, V158A
In the case of B3, the dissociation constant Kd stood at 32.4 nM in assay [1] and 38.5 nM in assay [2].

B4: Trastuzumab-MFc6 (antibody)
Fc: B1 Fc with S19D, I39V, D50Y, S78G, D136G, V158A
In the case of B4, the Kd in assay [1] is 28.9 nM; in assay [2], 29.9 nM.

These data come from patent US20240425612A1 (published 2024).
